Results: patent publication US12138316B2, “Anti-B7H3 antibody-drug conjugate and use thereof” (Duality Biologics (Suzhou) Co., Ltd., priority 2023, dated 2024)

T1: human B7H3 (Homo sapiens, UniProt Q5ZPR3)
T1 construct: MCF-7 cells expressing human full-length B7H3; host or cells: MCF-7
T1 sequence (Q5ZPR3 29-534): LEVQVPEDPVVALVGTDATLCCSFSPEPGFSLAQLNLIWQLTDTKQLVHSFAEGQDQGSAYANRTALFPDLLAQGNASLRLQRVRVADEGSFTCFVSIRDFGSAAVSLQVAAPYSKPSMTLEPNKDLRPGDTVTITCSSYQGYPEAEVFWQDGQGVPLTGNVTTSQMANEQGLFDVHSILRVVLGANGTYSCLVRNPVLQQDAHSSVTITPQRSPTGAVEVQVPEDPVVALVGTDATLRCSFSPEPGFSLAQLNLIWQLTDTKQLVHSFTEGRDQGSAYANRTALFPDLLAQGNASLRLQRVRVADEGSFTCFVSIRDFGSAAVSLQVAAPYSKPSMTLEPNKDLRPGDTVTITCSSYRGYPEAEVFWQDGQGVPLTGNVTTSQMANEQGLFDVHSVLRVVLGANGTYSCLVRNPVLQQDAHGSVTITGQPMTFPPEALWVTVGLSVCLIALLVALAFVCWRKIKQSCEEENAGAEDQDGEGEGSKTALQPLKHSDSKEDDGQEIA

T2: human 4IgB7H3 (Homo sapiens, UniProt Q5ZPR3)
T2 construct: Uniprot ID: Q5ZPR3, amino acids 29-461; made in house; host or cells: Expi293F
T2 sequence (Q5ZPR3 29-461): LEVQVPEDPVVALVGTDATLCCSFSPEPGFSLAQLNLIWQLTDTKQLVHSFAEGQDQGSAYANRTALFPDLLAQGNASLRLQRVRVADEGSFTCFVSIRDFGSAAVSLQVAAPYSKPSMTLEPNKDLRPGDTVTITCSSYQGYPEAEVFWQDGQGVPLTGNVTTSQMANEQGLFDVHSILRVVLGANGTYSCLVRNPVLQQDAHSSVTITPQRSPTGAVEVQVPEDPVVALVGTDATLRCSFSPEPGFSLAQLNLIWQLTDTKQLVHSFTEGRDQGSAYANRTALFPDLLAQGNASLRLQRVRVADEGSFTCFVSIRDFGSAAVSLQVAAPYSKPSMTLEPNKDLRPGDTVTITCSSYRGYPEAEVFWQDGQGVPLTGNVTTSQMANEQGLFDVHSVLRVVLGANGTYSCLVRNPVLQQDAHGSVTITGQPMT

T3: human 2IgB7H3 (Homo sapiens, UniProt Q5ZPR3)
T3 construct: His tag; purchased ACROBiosystems B73-H52E2
T3 sequence (Q5ZPR3 29-316 isoform Q5ZPR3-2 limits assumed): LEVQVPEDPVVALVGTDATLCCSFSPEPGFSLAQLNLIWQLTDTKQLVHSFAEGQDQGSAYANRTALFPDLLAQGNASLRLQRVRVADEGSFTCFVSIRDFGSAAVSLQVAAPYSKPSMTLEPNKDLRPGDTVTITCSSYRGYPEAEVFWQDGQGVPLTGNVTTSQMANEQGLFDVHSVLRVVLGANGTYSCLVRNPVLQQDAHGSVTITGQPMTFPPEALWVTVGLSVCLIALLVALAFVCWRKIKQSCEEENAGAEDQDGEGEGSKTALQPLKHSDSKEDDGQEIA

B1: Enoblituzumab (MacroGenics): anti-B7H3 benchmark antibody (MacroGenics), SEQ ID NOs: 117 and 119 in U.S. 20120294796A1 (antibody, chains of the INN, looked up)
heavy: EVQLVESGGGLVQPGGSLRLSCAASGFTFSSFGMHWVRQAPGKGLEWVAYISSDSSAIYYADTVKGRFTISRDNAKNSLYLQMNSLRDEDTAVYYCGRGRENIYYGSRLDYWGQGTTVTVSSASTKGPSVFPLAPSSKSTSGGTAALGCLVKDYFPEPVTVSWNSGALTSGVHTFPAVLQSSGLYSLSSVVTVPSSSLGTQTYICNVNHKPSNTKVDKRVEPKSCDKTHTCPPCPAPELVGGPSVFLLPPKPKDTLMISRTPEVTCVVVDVSHEDPEVKFNWYVDGVEVHNAKTKPPEEQYNSTLRVVSVLTVLHQDWLNGKEYKCKVSNKALPAPIEKTISKAKGQPREPQVYTLPPSREEMTKNQVSLTCLVKGFYPSDIAVEWESNGQPENNYKTTPLVLDSDGSFFLYSKLTVDKSRWQQGNVFSCSVMHEALHNHYTQKSLSLSPG
light: DIQLTQSPSFLSASVGDRVTITCKASQNVDTNVAWYQQKPGKAPKALIYSASYRYSGVPSRFSGSGSGTDFTLTISSLQPEDFATYYCQQYNNYPFTFGQGTKLEIKRTVAAPSVFIFPPSDEQLKSGTASVVCLLNNFYPREAKVQWKVDNALQSGNSQESVTEQDSKDSTYSLSSTLTLSKADYEKHKVYACEVTHQGLSSPVTKSFNRGEC

Columns and labels:
[1] = Pharmacokinetic study, single intravenous infusion in cynomolgus monkeys; details: both sexes, cynomolgus monkey, in vivo
Procedure: 18 cynomolgus monkeys (half female and half male) were weighed one day before administration, stratified based on the weight, and then randomly divided into 3 groups (3 females and 3 males/group): a low dose group (1 mg/kg), a medium dose group (3 mg/kg), and a high dose group (10 mg/kg). […] Blood was collected from the forelimb veins of cynomolgus monkeys in each group, and treated samples of the blood collected at 0 h before and 0.5 […], and 672 h after the administration were used as PK samples. After the blood collection at each time point was completed, serum was obtained by centrifugation for sample analysis.

human B7H3 = molecular target: T1, human B7H3; assay: FACS binding to human B7H3-expressing cells MCF-7
Procedure: (§1) FACS was used to detect the binding of antibodies to human B7H3. This method allows quantitative analysis and identification of specific molecules expressed on the surface of living cells. Unlabeled cells were used as a control to set a threshold before the assay, and the percentage change for each group that exceeded the fluorescence intensity threshold was analyzed. MCF-7 cells expressing human full-length B7H3 (1×10^5 cells/well) were incubated with various concentrations of antibodies (3.16-fold serially diluted with 1×DPBS/1% BSA from 50 nM to 0.0005 nM) in a volume of 100 μL/well in a refrigerator set to 4° C. for 1 h. Anti-human B7H3 reference antibody enoblituzumab (MacroGeneics) was used as a positive control. Human IgG1 isotype antibody was used as a negative control. After washing the cells with 1×DPBS/1% BSA, Alexa 647 goat anti-human antibody (diluted in a 1:500 ratio in 1×DPBS/1% BSA) was added. The cells were incubated in a refrigerator set to 4° C. for 0.5 h in the dark. The mean fluorescence intensity (MFI) of the cells was measured by a flow cytometry and analyzed by FlowJo. EC50 values were calculated by four-parameter non-linear regression analysis using GraphPad Prism 7 software.

cynomolgus monkey B7H3 [2] = assay: FACS binding to cynomolgus monkey B7H3-transfected stable cell pool
Procedure: as §1, with “to cynomolgus monkey” for “to human”, “B7H3. FlpinCHO” for “B7H3. This method allows quantitative analysis and identification of specific molecules expressed on the surface of living cells. Unlabeled”, “were transfected with cynomolgus monkey B7H3 (W3XX088-FlpinCHO.cProl.pool) (1×10^5 cells/well),” for “were used as a control to set a threshold before the assay,”, “the transfected” for “the percentage change for each group that exceeded the fluorescence intensity threshold was analyzed. MCF-7”, “cells” for “cells expressing human full-length B7H3 (1×10^5 cells/well)”

human 4IgB7H3 = molecular target: T2, human 4IgB7H3; assay: Binding affinity for human 4IgB7H3 (SPR)
Procedure: (§2) The affinity of antibodies for human 4IgB7H3 was determined using surface plasmon resonance (SPR). The affinity of antibodies for human 4IgB7H3 was determined by Biacore 8K. An activator was prepared by mixing 400 mM EDC and 100 mM NHS (GE) immediately prior to injection into the channel. The CM5 sensor chip was activated for 420 seconds with the activator. Goat anti-human Fc IgG (30 μg/mL in 10 mM NaAc, pH 4.5) was then injected into the channel at a flow rate of 10 μL/min for 420 seconds. The chip was deactivated by 1 M ethanolamine hydrochloric acid. The antibodies diluted in running buffer (1×HBS-EP+) were injected into the channel at a flow rate of 10 μL/min for 30 seconds. Seven concentrations (100 nM, 50 nM, 25 nM, 12.5 nM, 6.25 nM, 2.125 nM, and 1.563 nM) of analyte human 4IgB7H3 were injected sequentially into the channel at a flow rate of 30 μL/min for an association phase of 180 seconds, followed by dissociation of 3600 seconds. Glycine (10 mM, pH 1.5) was injected as regeneration buffer after the dissociation phase.
(§3) The sensorgrams for the reference channel and the buffer channel were subtracted from the test sensorgrams. The experimental data were fitted with a 1:1 binding model. The molecular weight of the human 4IgB7H3 used in the calculation was 47.8 kDa.

human 2IgB7H3 = molecular target: T3, human 2IgB7H3; assay: Binding affinity for human 2IgB7H3 (SPR)
Procedure: The affinity of antibodies for human 2IgB7H3 was determined using surface plasmon resonance (SPR). The affinity of antibodies for human 2IgB7H3 was determined by Biacore 8K. An activator was prepared by mixing 400 mM EDC and 100 mM NHS (GE) immediately prior to injection into the channel. The CM5 sensor chip was activated for 420 seconds with the activator. Goat anti-human Fc IgG (30 μg/mL in 10 mM NaAc, pH 4.5) was then injected into the channel at a flow rate of 10 μL/min for 420 seconds. The chip was deactivated by 1 M ethanolamine hydrochloric acid. The antibodies diluted in running buffer (1×HBS-EP+) were injected into the channel at a flow rate of 10 μL/min for 30 seconds. Seven concentrations (500 nM, 250 nM, 125 nM, 62.5 nM, 31.25 nM, 15.625 nM, and 7.813 nM) of analyte human 2IgB7H3 were injected sequentially into the channel at a flow rate of 30 μL/min for an association phase of 120 seconds, followed by dissociation of 300 seconds. Glycine (10 mM, pH 1.5) was injected as regeneration buffer after the dissociation phase.
The sensorgrams for the reference channel and the buffer channel were subtracted from the test sensorgrams. The experimental data were fitted with a 1:1 binding model. The molecular weight of the human 2IgB7H3 used in the calculation was 25.2 kDa.

cynomolgus monkey B7H3 [3] = assay: Binding affinity for cynomolgus monkey B7H3 (SPR)
Procedure: as §2, with “cynomolgus monkey B7H3” for “human 4IgB7H3”, “Seven concentrations (100 nM, 50 nM, 25 nM, 12.5 nM, 6.25 nM, 2.125 nM, and 1.563 nM) of analyte human 4IgB7H3 were injected sequentially into the channel at a flow rate of 30 μL/min for an association phase of 180 seconds, followed by dissociation of 3600 seconds.” left out
as §3, with “data for 6 analyte concentrations (50 nM, 25 nM, 12.5 nM, 6.25 nM, 3.125 nM, and 1.563 nM)” for “data”, “cynomolgus monkey B7H3” for “human 4IgB7H3”, “49” for “47.8”

[4] = tested on: human B7H3-expressing cells MCF-7; assay: Internalization test (HCS) in MCF-7 cells; type: cell-based
Procedure: Antibody internalization was determined by operetta CLS (PerkinElmer), a high-content imaging and analysis system that can collect and analyze images of samples at high speed and high sensitivity. MCF-7 cells expressing human full-length B7H3 (1.5×10^4 cells/well) were seeded into a 96-well clear bottom black plate pre-coated with 8 μg/mL poly-D-lysine. After incubation in an incubator set to 37° C., 5% CO2 overnight, various concentrations of the antibodies (3.16-fold serially diluted with 1×DPBS/1% BSA from 50 nM to 0.0005 nM) were incubated in a volume of 100 μL/well in a refrigerator set to 4° C. for 2 h. Anti-human B7H3 reference antibody enoblituzumab (MacroGeneics) was used as a positive control. Human IgG1 isotype antibody was used as a negative control. After washing the cells with 1×DPBS/1% BSA, Alexa 647 goat anti-human antibody (diluted in a 1:500 ratio in 1×DPBS/1% BSA) was added. The cells were incubated in a refrigerator set to 4° C. for 1 h in the dark. The cells were then washed once and resuspended in 1×DPBS/1% BSA at 37° C. for 2 h. […] The mean fluorescence intensity (MFI) of the cells was measured and analyzed by operetta CLS. EC50 values were calculated by four-parameter non-linear regression analysis using GraphPad Prism 7 software.

Molecule | AUC(0-t) ([1]; 3 mg/kg) | Cmax ([1]; 3 mg/kg) | AUC(0-t) ([1]; 10 mg/kg) | Cmax ([1]; 10 mg/kg) | Maximum MFI (human B7H3) | Maximum MFI (cynomolgus monkey B7H3 [2]) | ka (human 4IgB7H3) | kd (dissociation rate constant) (human 4IgB7H3) | ka (human 2IgB7H3) | kd (dissociation rate constant) (human 2IgB7H3) | ka (cynomolgus monkey B7H3 [3]) | kd (dissociation rate constant) (cynomolgus monkey B7H3 [3]) | Antibody internalization Maximum MFI [4]
CC[C@@]1(O)C(=O)OCc2c1cc1n(c2=O)Cc2c-1nc1cc(F)c(C)c3c1c2[C@@H](NC(=O)C[C@H](C)O)CC3 [P-III-30] | 1.07 ng·h/mL | 0.133 ng/mL | 44.5 ng·h/mL | 0.573 ng/mL |  |  |  |  |  |  |  |  | 
B1 |  |  |  |  | 4644 | 19700 | 124000 M⁻¹ s⁻¹ | 0.000126 s⁻¹ | 64400 M⁻¹ s⁻¹ | 0.0168 s⁻¹ | 185000 M⁻¹ s⁻¹ | 8.14e-05 s⁻¹ | 39777
